# Paper doi:10.1101/2021.12.08.471876 (bioRxiv, 2021)
# B1: GST-preS1 truncated protein preS1-p3 (residues 66-119) (domain or fragment)
# chain: GFTPPHGGLLGWSPQAQGILTTLPAAPPPASTNRQSGRQPTPISPPLRDSHPQA
# B2: GST-preS1 truncated protein preS1-p2 (residues 25-90) (domain or fragment)
# chain: FPDHQLDPAFGANSNNPDWDFNPNKDHWPEANQVGAGAFGPGFTPPHGGLLGWSPQAQGILTTLPA
# Key:
# [1] = target: T1, purified recombinant GRP78 protein (GRP78-His) (human, UniProt P11021 19-654, NT-647 fluorescent label (in the MST only)); assay: MST
# [2] = target: T1, purified recombinant GRP78 protein …; assay: ITC
# T1 sequence (P11021 19-654): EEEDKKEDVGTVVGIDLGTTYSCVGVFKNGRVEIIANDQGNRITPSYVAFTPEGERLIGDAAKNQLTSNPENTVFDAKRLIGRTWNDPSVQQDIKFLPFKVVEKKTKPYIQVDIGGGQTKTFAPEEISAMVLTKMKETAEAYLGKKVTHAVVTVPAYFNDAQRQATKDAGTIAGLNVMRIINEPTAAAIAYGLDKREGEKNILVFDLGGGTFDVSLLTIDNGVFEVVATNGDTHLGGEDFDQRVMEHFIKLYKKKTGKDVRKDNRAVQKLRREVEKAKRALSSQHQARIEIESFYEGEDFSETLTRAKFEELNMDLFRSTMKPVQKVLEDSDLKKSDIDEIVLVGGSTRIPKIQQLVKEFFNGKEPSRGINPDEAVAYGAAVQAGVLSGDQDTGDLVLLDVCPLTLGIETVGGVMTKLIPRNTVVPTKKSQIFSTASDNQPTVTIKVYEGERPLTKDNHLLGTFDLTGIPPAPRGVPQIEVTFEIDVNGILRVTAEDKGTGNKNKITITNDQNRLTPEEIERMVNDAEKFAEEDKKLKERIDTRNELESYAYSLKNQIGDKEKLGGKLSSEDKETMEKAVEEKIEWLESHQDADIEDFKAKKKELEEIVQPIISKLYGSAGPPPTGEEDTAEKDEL
Binder,Kd [1],Kd [2]
B1,431 nM,
QGIMQTVPAN [pep59],,10.6 nM
DPAFGANSL [pep56],,6.59 nM
B2,1200 nM,
